Assay results: patent publication US20220411483A1 (Chugai, published 2022)
Each block holds one binder with its values, some of them ahead of it.

How the values were obtained:
[1] = biological target: T1, mouse FcγRI (mouse, UniProt P26151 25-297, limits assumed); test: SPR
T1 construct: also called mFcγRI
T1 sequence (looked up): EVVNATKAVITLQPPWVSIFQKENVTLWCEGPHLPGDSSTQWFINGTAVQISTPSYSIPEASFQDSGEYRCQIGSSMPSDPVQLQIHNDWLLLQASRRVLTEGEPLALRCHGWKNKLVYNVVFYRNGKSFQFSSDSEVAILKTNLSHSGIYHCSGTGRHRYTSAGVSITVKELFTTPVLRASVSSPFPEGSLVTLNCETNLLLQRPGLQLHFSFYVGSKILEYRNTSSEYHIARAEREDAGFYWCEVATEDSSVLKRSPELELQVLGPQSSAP

[2] = biological target: T2, mouse FcγRIV (mouse, UniProt A0A0B4J1G0 21-203); test: SPR
T2 construct: also called mFcγRIV
T2 sequence: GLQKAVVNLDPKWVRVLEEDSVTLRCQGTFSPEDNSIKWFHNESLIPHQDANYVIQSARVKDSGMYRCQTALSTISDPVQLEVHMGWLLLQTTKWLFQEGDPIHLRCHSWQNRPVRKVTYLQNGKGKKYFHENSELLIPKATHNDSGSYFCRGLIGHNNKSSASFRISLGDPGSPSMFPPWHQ

[3] = biological target: T3, FcγRIIb extracellular domain with C-terminal His tag (human, UniProt P31994 43-217); test: SPR (Biacore); KD of IL6R-B3/IL6R-L / KD of variant
T3 construct: extracellular domain; also called FcgRIIb
T3 sequence (looked up): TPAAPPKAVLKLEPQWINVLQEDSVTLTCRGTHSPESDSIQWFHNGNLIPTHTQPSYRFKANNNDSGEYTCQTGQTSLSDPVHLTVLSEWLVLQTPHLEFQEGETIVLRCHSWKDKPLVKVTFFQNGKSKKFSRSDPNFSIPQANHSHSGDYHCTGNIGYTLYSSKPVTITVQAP

[4] = biological target: T3, FcγRIIb extracellular domain with …; test: SPR (Biacore), FcgR as analyte
[5] = biological target: T4, FcγRIa extracellular domain with C-terminal His tag (human, UniProt P12314 16-292); test: SPR (Biacore), FcgR as analyte
T4 construct: also called FcgRIa
T4 sequence (P12314 16-292): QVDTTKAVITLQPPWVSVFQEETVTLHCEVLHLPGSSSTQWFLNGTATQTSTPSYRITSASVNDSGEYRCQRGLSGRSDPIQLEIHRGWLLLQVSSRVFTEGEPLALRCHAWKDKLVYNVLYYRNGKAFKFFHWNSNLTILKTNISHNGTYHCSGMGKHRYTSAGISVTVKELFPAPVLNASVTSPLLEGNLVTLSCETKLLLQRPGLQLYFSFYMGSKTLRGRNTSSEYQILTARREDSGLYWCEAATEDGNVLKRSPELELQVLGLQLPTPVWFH

binding result [1]: no binding | binding result [2]: no binding
B1: VH3/L (WT)-mIgG1 (antibody)
heavy: QVQLQESGPGLVKPSETLSLTCAVSGHSISHDHAWSWVRQPPGEGLEWIGFISYSGITNYNPSLQGRVTISRDNSKNTLYLQMNSLRAEDTAVYYCARSLARTTAMDYWGEGTLVTVSSAKTTPPSVYPLAPGSAAQTNSMVTLGCLVKGYFPEPVTVTWNSGSLSSGVHTFPAVLQSDLYTLSSSVTVPSSTWPSETVTCNVAHPASSTKVDKKIVPRDCGCKPCICTVPEVSSVFIFPPKPKDVLTITLTPKVTCVVVDISKDDPEVQFSWFVDDVEVHTAQTQPREEQFNSTFRSVSELPIMHQDWLNGKEFKCRVNSAAFPAPIEKTISKTKGRPKAPQVYTIPPPKEQMAKDKVSLTCMITDFFPEDITVEWQWNGQPAENYKNTQPIMDTDGSYFVYSKLNVQKSNWEAGNTFTCSVLHEGLHNHHTEKSLSHSPGK
light: not shown
notes: mouse IgG1 Fc region

Relative FcgRIIb-binding Activity [3]: 15.7 fold vs IL6R-B3/IL6R-L | Kd [4]: 200 nM | Kd [5]: 11 nM
B2: IL6R-BP198/IL6R-L (antibody, human IgG1, kappa, name in EU numbering)
heavy: QVQLQESGPGLVKPSETLSLTCAVSGHSISHDHAWSWVRQPPGEGLEWIGFISYSGITNYNPSLQGRVTISRDNSKNTLYLQMNSLRAEDTAVYYCARSLARTTAMDYWGEGTLVTVSSASTKGPSVFPLAPSSKSTSGGTAALGCLVKDYFPEPVTVSWNSGALTSGVHTFPAVLQSSGLYSLSSVVTVPSSSLGTQTYICNVNHKPSNTKVDKKVEPKSCDKTHTCPPCPAPDYLGGDSVFLFPPKPKDTLMISRTPEVTCVVVDVSDEDGEVKFNWYVDGVEVHNAKTKPREEQYNSTYRVVSVLTVLHQDWLNGKEYKCKVSNAALPKPIEKTISKAKGQPREPQVYTLPPSRDELTKNQVSLTCLVKGFYPSDIAVEWESNGQPENNYKTTPPVLDSDGSFFLYSKLTVDKSRWQQGNVFSCSVMHEALHNHYTQESLSLSP
light: not shown
notes: IgG1; alterations on IL6R-B3, EU numbering
